Here are results for 5 variants from article PMC9834221, “TLR3 forms a laterally aligned multimeric complex along double-stranded RNA for efficient signal transduction”.

The labels stand for the following.
B1: mouse Toll-like receptor 3 (TLR3) extracellular domain (ECD), wild type [mouse] / itself (parent)
chain: TNQCTVRYNVADCSHLKLTHIPDDLPSNITVLNLTHNQLRRLPPTNFTRYSQLAILDAGFNSISKLEPELCQILPLLKVLNLQHNELSQISDQTFVFCTNLTELDLMSNSIHKIKSNPFKNQKNLIKLDLSHNGLSSTKLGTGVQLENLQELLLAKNKILALRSEELEFLGNSSLRKLDLSSNPLKEFSPGCFQTIGKLFALLLNNAQLNPHLTEKLCWELSNTSIQNLSLANNQLLATSESTFSGLKWTNLTQLDLSYNNLHDVGNGSFSYLPSLRYLSLEYNNIQRLSPRSFYGLSNLRYLSLKRAFTKQSVSLASHPNIDDFSFQWLKYLEYLNMDDNNIPSTKSNTFTGLVSLKYLSLSKTFTSLQTLTNETFVSLAHSPLLTLNLTKNHISKIANGTFSWLGQLRILDLGLNEIEQKLSGQEWRGLRNIFEIYLSYNKYLQLSTSSFALVPSLQRLMLRRVALKNVDISPSPFRPLRNLTILDLSNNNIANINEDLLEGLENLEILDFQHNNLARLWKRANPGGPVNFLKGLSHLHILNLESNGLDEIPVGVFKNLFELKSINLGLNNLNKLEPFIFDDQTSLRSLNLQKNLITSVEKDVFGPPFQNLNSLDMRFNPFDCTCESISWFVNWINQTHTNISELSTHYLCNTPHHYYGFPLKLFDTSSCKDSAPFEL

This experiment covers variants of B1. The experiment in a line: cryo-EM 2D classification (fraction of tetrameric TLR3 particles on 90 bp dsRNA). The following applies: with itself; TLR3 0.2 mg/mL (~2.4 µM) with 3.6 molar amount of 90 bp dsRNA (0.5 mg/mL, ~8.6 µM); 25 mM MES-NaOH pH 5.3 and 0.2 M NaCl; on ice for 2–3 h; parent: 11; read off a plot.
For chain 1 N498K E499K E503K, the screen value stood at 12%.

Take chain 1 Q93E V96E K113E K115E N117E K120E N121E: the screen value was 1.6%. Regarding chain 1 S91E Q93E K113E K115E N117E K120E N121E, the screen value came to 0.75%. As to chain 1 E499K D500K E503K, the screen value came to 2.7%. chain 1 E499K D500K: the screen value was found to be 3.6%.
